In the Human Domainome abundance scans (Beltran et al. 2025):
± gives the uncertainty stated by the source.

B1: Formin-binding protein 4, residues 593 to 636; numbered along this chain, Q8N3X1 (parent)
chain: EINATPKGWSCHWDRDHRRYFYVNEQSGESQWEFPDGEEEEEES

Variants of: B1
Experiment: abundance fitness (aPCA) (normalised: wild type 0, dead -1); higher = more abundant; growth selection in yeast, the domain comes from the species named
Conditions: Homo sapiens

Abundance fitness, by site and new letter:
P6: S -0.412 ± 0.39; G -0.587 ± 0.24
W13: C -0.497 ± 0.1; A -0.571 ± 0.068; E -0.456 ± 0.084; I -0.986 ± 0.31; G -0.544 ± 0.067; R -0.738 ± 0.065; F -0.095 ± 0.18; Y -0.189 ± 0.25; M -0.542 ± 0.096; D -0.71 ± 0.14; P -0.404 ± 0.074; Q -0.546 ± 0.085; H -0.499 ± 0.1; K -0.545 ± 0.16; L -0.46 ± 0.083; S -0.662 ± 0.079
E29: G -0.253 ± 0.07; N -0.421 ± 0.31; V -0.126 ± 0.079; W -0.559 ± 0.093; M -0.058 ± 0.096; D -0.388 ± 0.26; T -0.269 ± 0.3; H -0.016 ± 0.094; Q -0.027 ± 0.079; L -0.129 ± 0.094; A -0.052 ± 0.081; P -0.883 ± 0.12; I -0.062 ± 0.13; C -0.575 ± 0.18
H17: W -0.486 ± 0.095; A 0.037 ± 0.07; Q 0.186 ± 0.16; E 0.088 ± 0.079; M -0.235 ± 0.19; Y -0.156 ± 0.095; P -1 ± 0.12; L 0.007 ± 0.078; D -0.201 ± 0.11; K 0.207 ± 0.1; G -0.274 ± 0.065; F -0.025 ± 0.35; S -0.01 ± 0.081; V -0.208 ± 0.086; R 0.046 ± 0.058
S10: R -0.265 ± 0.085; K -0.212 ± 0.15; E -0.381 ± 0.11; Y -0.521 ± 0.43; M -0.389 ± 0.15; T -0.288 ± 0.24; H -0.502 ± 0.29; L -0.345 ± 0.12; Q -0.183 ± 0.15; G -0.528 ± 0.095; V -0.186 ± 0.1; W -1.06 ± 0.12; D -0.465 ± 0.11; P -0.91 ± 0.15
H12: P -0.822 ± 0.15; T -0.407 ± 0.26; D -0.646 ± 0.14; V -0.21 ± 0.074; R -0.17 ± 0.07; Y -0.227 ± 0.15; W -0.637 ± 0.094; K -0.179 ± 0.097; N -0.287 ± 0.18; E -0.049 ± 0.13; G -0.379 ± 0.075; L -0.306 ± 0.073; Q -0.432 ± 0.2; C -0.302 ± 0.14; M -0.498 ± 0.13; S -0.453 ± 0.1
S27: E -0.427 ± 0.091; P -1.02 ± 0.19; M -0.641 ± 0.12; R -0.422 ± 0.09; F -0.988 ± 0.17; D -0.551 ± 0.14; K -0.485 ± 0.18; Q -0.613 ± 0.12; G -0.458 ± 0.11; A -0.611 ± 0.08; T 0.022 ± 0.072; N -0.453 ± 0.47; W -1.52 ± 0.45; C -0.681 ± 0.28
N24: C -0.226 ± 0.18; I -1.14 ± 0.15; F -0.687 ± 0.31; T -0.63 ± 0.14; S -0.315 ± 0.079; D -0.362 ± 0.085; L -1 ± 0.082; Y -0.998 ± 0.16; W -0.726 ± 0.082; R -0.359 ± 0.058; G -0.611 ± 0.059; A -0.62 ± 0.068; E -0.335 ± 0.082; M -0.984 ± 0.099; Q -0.41 ± 0.084; K -0.23 ± 0.13; V -1.08 ± 0.072
F21: Q -0.223 ± 0.19; M -0.048 ± 0.16; L -0.051 ± 0.083; G -0.368 ± 0.058; W -0.275 ± 0.086; T -0.111 ± 0.16; H -0.391 ± 0.11; E -0.145 ± 0.089; V 0.113 ± 0.067; A -0.179 ± 0.064; P -0.303 ± 0.093; C 0.058 ± 0.087; R 0.187 ± 0.06; K -0.067 ± 0.11
S30: K 0.274 ± 0.16; G -0.023 ± 0.078; I 0.082 ± 0.13; F -0.066 ± 0.36; E -0.04 ± 0.084; H -0.354 ± 0.17; A 0.014 ± 0.071
W9: V -0.629 ± 0.1; M -0.591 ± 0.12; L -0.719 ± 0.083; R -0.817 ± 0.071; G -0.423 ± 0.058; Y -0.534 ± 0.16; A -0.568 ± 0.099; C -0.56 ± 0.094; S -0.368 ± 0.074; E -0.661 ± 0.16; Q -0.498 ± 0.14; D -0.742 ± 0.18; K -0.619 ± 0.2; P -0.512 ± 0.09
R19: L -0.423 ± 0.12; V -0.491 ± 0.077; N -0.506 ± 0.25; P -1.24 ± 0.3; C -0.207 ± 0.3; G -0.485 ± 0.07; Y -0.864 ± 0.21; T -0.621 ± 0.2; M -0.21 ± 0.11; Q -0.092 ± 0.11; E -0.406 ± 0.11; K -0.058 ± 0.088; S -0.391 ± 0.14
D14: Y -1.24 ± 0.15; E -0.685 ± 0.13; F -0.75 ± 0.47; S -0.141 ± 0.077; H -0.289 ± 0.13; C -0.341 ± 0.13; K -0.928 ± 0.14; G -0.963 ± 0.068; A -0.514 ± 0.072; M -0.682 ± 0.098; W -1.4 ± 0.11; Q -0.667 ± 0.15; R -0.843 ± 0.076; P -1.12 ± 0.29; I -0.799 ± 0.17; T -0.747 ± 0.13; V -0.811 ± 0.079
Y22: T -0.402 ± 0.12; G -0.544 ± 0.081; Q -0.439 ± 0.099; E -0.482 ± 0.2; M -0.492 ± 0.16; N -0.092 ± 0.29; V -0.692 ± 0.075; S -0.322 ± 0.087; I -0.515 ± 0.17; D -0.552 ± 0.17; K 0.291 ± 0.34; A -0.572 ± 0.079; W 0.035 ± 0.08
Y20: R -0.229 ± 0.068; T -0.277 ± 0.11; K -0.319 ± 0.28; C -0.196 ± 0.12; S -0.353 ± 0.08; V -0.206 ± 0.068; P -0.143 ± 0.1; M -0.205 ± 0.12; E -0.488 ± 0.078; A -0.3 ± 0.065; G -0.605 ± 0.063; N -0.059 ± 0.25; D -0.64 ± 0.13; Q -0.285 ± 0.16; W 0.072 ± 0.07
T5: W -0.19 ± 0.15; L 0.213 ± 0.084; G -0.393 ± 0.097; H -0.534 ± 0.36; R -0.345 ± 0.13; K 0.67 ± 0.33; S -0.81 ± 0.33; D -0.463 ± 0.3; F -0.306 ± 0.17; Q -0.358 ± 0.44; M -0.054 ± 0.15; V 0.065 ± 0.17
K7: R -0.074 ± 0.1; T -0.456 ± 0.27; D -0.123 ± 0.4; A -0.079 ± 0.093; S -0.214 ± 0.14; L -0.299 ± 0.1; F -0.303 ± 0.1; V -0.065 ± 0.12; G -0.577 ± 0.15; H 0.125 ± 0.48
R18: L 0.016 ± 0.089; A 0.012 ± 0.071; V -0.421 ± 0.1; P -0.635 ± 0.15; C -0.183 ± 0.22; M -0.124 ± 0.13; G 0.063 ± 0.061; T -0.344 ± 0.093; H -0.11 ± 0.16; W -0.571 ± 0.081
R15: L -0.167 ± 0.082; N -0.05 ± 0.12; F -0.188 ± 0.21; S 0.019 ± 0.093; E 0.123 ± 0.07; P -0.118 ± 0.1; T -0.162 ± 0.29; K 0.14 ± 0.11; Q 0.139 ± 0.16; D -0.007 ± 0.15; W -0.315 ± 0.1; A -0.059 ± 0.073; C -0.204 ± 0.088; I 0.373 ± 0.23; G -0.032 ± 0.061; H 0.116 ± 0.096; Y -0.302 ± 0.2; M -0.18 ± 0.11
Q26: A 0.017 ± 0.071; P -1.06 ± 0.24; T -0.104 ± 0.12; V -0.19 ± 0.099; R -0.085 ± 0.067; M -0.242 ± 0.18; H -0.266 ± 0.2; S -0.071 ± 0.081; K 0.18 ± 0.11; F -0.015 ± 0.29; L -0.137 ± 0.083; C 0.133 ± 0.25; G -0.199 ± 0.063
V23: T 0.324 ± 0.21; F -0.367 ± 0.14; G -0.607 ± 0.059; P -0.736 ± 0.11; K 0.074 ± 0.11; L -0.024 ± 0.082; E -0.26 ± 0.073; D -0.513 ± 0.14; Q -0.179 ± 0.093; C -0.765 ± 0.21; M -0.331 ± 0.14; R -0.039 ± 0.058; A -0.347 ± 0.071
G28: A -0.567 ± 0.076; D -0.682 ± 0.11; M -0.611 ± 0.13; Q -0.337 ± 0.11; L -0.363 ± 0.071; C -0.61 ± 0.12; R -0.438 ± 0.079; T -0.728 ± 0.079; K -0.199 ± 0.2; S -0.553 ± 0.075; V -0.932 ± 0.085; F -1.22 ± 0.23; W -1.14 ± 0.12; E -0.702 ± 0.1
G8: L -0.795 ± 0.13; R -0.621 ± 0.11; V -0.664 ± 0.14; S -0.623 ± 0.13; M -0.605 ± 0.14; I -0.496 ± 0.14; C -0.471 ± 0.16; T -0.843 ± 0.27; N -0.373 ± 0.16; A -0.707 ± 0.08; E -0.438 ± 0.18; K -0.408 ± 0.2; Q -0.612 ± 0.14
C11: K -0.025 ± 0.2; V -0.257 ± 0.2; G 0.037 ± 0.25
D16: R -0.274 ± 0.059; Q -0.075 ± 0.12; G -0.239 ± 0.061; V -0.253 ± 0.08; T -0.064 ± 0.14; C -0.225 ± 0.089; K -0.169 ± 0.084; W -0.218 ± 0.069; F -0.362 ± 0.17; A -0.234 ± 0.063; L -0.447 ± 0.069; H -0.168 ± 0.088; S -0.24 ± 0.09
E25: H -0.251 ± 0.12; R -0.175 ± 0.067; A -0.179 ± 0.078; G -0.316 ± 0.073; C -0.355 ± 0.29; S -0.365 ± 0.14; P -0.449 ± 0.14; T -0.119 ± 0.13; M -0.253 ± 0.12; V -0.17 ± 0.094; K 0.477 ± 0.27; D 0.144 ± 0.13; Q 0.006 ± 0.14; W -0.648 ± 0.095
